Experiment [1] deals with glutathione (GSH) immobilized on dendron-modified controlled pore glass, sample E1 (Fmoc-(3)acid dendron). Kind of experiment: pull-down from lysate with E1 beads, SDS-PAGE densitometry, relative to GST on E1.
The target in experiment [2] is glutathione (GSH) immobilized on dendron-modified controlled pore glass, sample E3 (Fmoc-(9)acid dendron). Kind of experiment: pull-down from lysate with E3 beads, SDS-PAGE densitometry, relative to GST on E3.
In the next experiment the target is glutathione Sepharose-4B. Kind of experiment: pull-down from lysate with glutathione Sepharose-4B, SDS-PAGE densitometry, relative to GST on Sepharose-4B.
For experiment [3], the target named is glutathione (GSH) immobilized on dendron-modified controlled pore glass, sample E1 (Fmoc-(3)acid dendron). Kind of experiment: GST captured on beads, sample weight adjusted to the same number of GSH, SDS-PAGE densitometry.
For experiment [4], the target named is glutathione (GSH) immobilized on dendron-modified controlled pore glass, sample E3 (Fmoc-(9)acid dendron). The experiment is described as above.

For “GST-Munc-18 fragment (98 kDa) (from UniProt P08515 1-218)”, the relative binding capacity (GST on the same matrix set at 100%) worked out at 22% in experiment [1] and 23% in experiment [2]. The binding efficiency (relative, GST on the same matrix set at 100%) in the experiment with glutathione Sepharose-4B is 17%.

For “GST-PX^p47 (41 kDa), GST fused to the PX domain of p47^phox (from UniProt P08515 1-218)”, the relative binding capacity (GST on the same matrix set at 100%) in experiment [1] is 92%; in experiment [2], 85%. In the experiment with glutathione Sepharose-4B, this substance had a binding efficiency (relative, GST on the same matrix set at 100%) of 104%.

For “glutathione S-transferase (GST) (28 kDa) (from UniProt P08515 1-218) (enzyme)”, the results for the Percentage of ligand utilization (%) in experiment [3] and in experiment [4] were 29% and 31%, respectively.
